Measured values taken from US20260266828A1, “BIOMARKERS FOR PREDICTING CANCER TREATMENT EFFICACY” (Arcus Biosciences, Inc., priority 2023, published 2026).

Test system: metastatic (Stage IV) squamous or non-squamous NSCLC
Assay: Randomized first-line trial: zimberelimab vs domvanalimab + zimberelimab vs etrumadenant + domvanalimab + zimberelimab; cORR and PFS in ITT and biomarker selected subsets
Format: in vivo, human
Conditions: for Events: PFS events; for HR vs. Low: PFS; for PFS: median
Method: The potential treatment benefit of zimberelimab monotherapy vs. domvanalimab plus zimberelimab combination therapy vs. etrumadenant plus domvanalimab plus zimberelimab combination therapy was evaluated in 150 people as a first-line treatment for metastatic (Stage IV) squamous or non-squamous NSCLC. Participants were randomized 1:1:1 across the three study arms and treated until disease progression or loss of clinical benefit. Arm 1 received zimberelimab 360 mg IV Q3W (Arm 1=Z). Arm 2 received domvanalimab 15 mg/kg IV Q3W and zimberelimab 360 mg IV Q3W (Arm 2=DZ). Arm 3 received domvanalimab 15 mg/kg IV Q3W, zimberelimab 360 mg IV Q3W, and etrumadenant 150 mg PO QD (Arm 3=EDZ). Participants in the zimberelimab monotherapy arm (Arm 1) with confirmed progression had the option to cross over to the triplet arm (Arm 3).
EGFR and ALK mutational testing was not required for participants with squamous histology.
The co-primary endpoints for this study were objective response rate (ORR) and progression free survival (PFS). ORR was defined as the percentage of participants with a best overall response (BOR) of either compete response (CR) or partial response (PR). Participants with measurable disease at baseline who discontinued prior to their first scheduled scan were considered non-responders. PFS was defined from the time of randomization until first documentation of disease progression, or death from any cause, whichever occurred first. In addition to the co-primary endpoints, disease control rate (DCR, defined as the percentage of participants with a BOR of CR, PR, or stable disease (SD) for >6 months), duration of response (DoR, defined as the time from first documentation of disease response (CR or PR) until first documentation of confirmed progressive disease) and overall survival (OS, defined as the time from randomization until death due to any cause) were also evaluated as exploratory endpoints. Efficacy analyses were based on the intent-to-treat (ITT) population, which comprises all randomized participants.
As part of an exploratory analysis, clinical outcomes in biomarker selected subsets were investigated retrospectively. Central submission of adequate tumor tissue and central confirmation of PD-L1 status was not required for study enrollment. Thus, the number of biomarker evaluable patients (BEP) varied by biomarker and was less than the ITT population. Expression levels of CD155, CD226, and CD73 were measured in baseline tumor biopsy samples (e.g., formalin-fixed, paraffin-embedded tissue or freshly cut, serial unstained sections), along with baseline expression level of PD-L1. The baseline samples were archival tumor samples obtained ≤24 months prior to screening or fresh biopsy samples obtained prior to the first dose of treatment. PD-L1 expression level in the BEP subset was measured at a central lab using the Ventana SP263 IHC assay, while enrollment in the trial was based on PD-L1 expression ([…] TC or TPS) locally assessed by Ventana SP263 assay or PharmDx 22C3 assay. CD155, CD226 and CD73 expression levels were measured at a central lab as described in Example L. PD-L1, CD155, CD226, and CD73 expression at baseline are summarized in Table 3. The best predictive biomarker of activity in Arm 1 was CD155 (e.g., CD155 low). At least three biomarkers (e.g., PD-L1 high, CD155 high, and CD73 low) enrich for clinical activity of domvanalimab and there was an even greater enhancement in patients that fulfill two of the biomarkers (analyses not shown).
Without rescoring CD155 intensity (i.e., using the original values scored by the pathologist), expression was characterized by two different scoring algorithms—namely, % TC and % TC 2-3+. The coefficient of determination (R^2 value) was used to look at the variance between each approach and CD155 expression characterization by H-scores. While % TC 2-3+ and H-score are highly concordant (R^2 value of 0.94), less concordance was observed between % TC and H-score (R^2 value of 0.71). […]

[1] = CD155 High (2+ or 3+ % TC ≥ 40%)
[2] = CD155 Low (2+ or 3+ % TC < 40%)

B1: zimberelimab (antibody, chains of the INN, looked up, V domains shown)
VH: QLQLQESGPGLVKPSETLTLTCTVSADSISSTTYYWVWIRQPPGKGLEWIGSISYSGSTYYNPSLKSRVTVSVDTSKNQFSLKLNSVAATDTALYYCARHLGYNGRYLPFDYWGQGTLVTVSS
VL: QSALTQPASVSGSPGQSITISCTGTSSDVGFYNYVSWYQQHPGKAPELMIYDVSNRPSGVSDRFSGSKSGNTASLTISGLQAEDEADYYCSSYTSISTWVFGGGTKLTVL
notes: zimberelimab monotherapy 360 mg IV Q3W; anti-PD-1 antibody
B1 was tested, and the “Event Rate” value (BEP for CD155, unselected) was 65%, the cORR (BEP for CD155, unselected) was 32% and the cORR (CD73 High: ≥61% TC, BEP) was 42%. For the same molecule, the cORR (CD73 Low: <61% TC, BEP) was 12%, the “Event Rate” value [1] was 82% and the cORR [1] was 18%. The cORR (CD155 High: H-score ≥ 135, BEP) was 24%, the “Event Rate” value [2] was 47% and the cORR [2] was 47%. The cORR (CD155 Low: H-score < 135, BEP) was 41%, the cORR (CD226 High: ≥4% IC, BEP) was 39% and the cORR (CD226 Low: <4% IC, BEP) was 27%. The “PFS Events (%)” value (ITT population) was “(64%)”, the “PFS Median” value (ITT population) was 5.4 mos and the “PFS Events” value (ITT population, number of events, n = 50 per arm) was 32. It also gave a cORR (ITT population, planned interim analysis) of 30%, a cORR (PD-L1 High: ≥50% TC, BEP) of 33% and a cORR (PD-L1 Low: <50% TC, BEP) of 27%. The Events (CD73 High: ≥61% TC, BEP) was 68%, the Events (CD73 Low: <61% TC, BEP) was 65% and the Events (CD155 High: H-score ≥ 135, BEP) was 82%. The Events (CD155 Low: H-score < 135, BEP) was 47%, the Events (CD226 High: ≥4% IC, BEP) was 69% and the Events (CD226 Low: <4% IC, BEP) was 73%. For the same molecule, the Events (PD-L1 High: ≥50% TC, BEP) was 67%, the Events (PD-L1 Low: <50% TC, BEP) was 60% and the “HR vs. Low” value (CD73 High (≥61% TC) vs. Low within the arm) was 0.63. For the same molecule, the “HR vs. Low” value (CD155 High (H-score ≥ 135) vs. Low within the arm) was 0.38, the “HR vs. Low” value (CD226 High (≥4% IC) vs. Low within the arm) was 0.473 and the “HR vs. Low” value (PD-L1 High (≥50% TC) vs. Low within the arm) was 1.04. For the same molecule, the PFS (BEP for CD155, unselected) was 5.4 mo, the PFS (CD73 High: ≥61% TC, BEP) was 9.6 mo and the PFS (CD73 Low: <61% TC, BEP) was 3.5 mo. The PFS [1] was 3.5 mo, the PFS (CD155 High: H-score ≥ 135, BEP) was 3.5 mo and the PFS [2] was 9.7 mo. For the same molecule, the PFS (CD155 Low: H-score < 135, BEP) was 9.7 mo, the PFS (CD226 High: ≥4% IC, BEP) was 5.4 mo and the PFS (CD226 Low: <4% IC, BEP) was 2.7 mo. It also gave a PFS (PD-L1 High: ≥50% TC, BEP) of 5.7 mo and a PFS (PD-L1 Low: <50% TC, BEP) of 5.4 mo.
